Experimental data as given in US20260250322A1, “NEW PEPTIDES AS SELECTIVE IL-23 RECEPTOR INHIBITORS” (SANOFI, priority 2023, published 2026).
Numbered stars: 1 amine (or outer) side, 2 acyl side, 3 side chain; on linkers, the order of the positions; unused ones are H or OH. Bridge positions count the residues as written; N and C are the ends. Square brackets hold non-standard residues; d marks the D form. Tyr(Me) = Yme = 4-methoxy-L-phenylalanine (O-methyl-tyrosine), COc1ccc(C[C@H](N[*:1])C(=O)[*:2])cc1; Trp(1-Me) = Cn1cc(C[C@H](N)C(=O)O)c2ccccc21; dAla(4-thiazolyl) = N[C@H](Cc1cscn1)C(=O)O; 1Nal = N[C@@H](Cc1cccc2ccccc12)C(=O)O; 2Nal = N[C@@H](Cc1ccc2ccccc2c1)C(=O)O; Cit = NC(=O)NCCC[C@H](N)C(=O)O; αMeL = CC(C)C[C@](C)(N)C(=O)O; Orn = NCCC[C@H](N)C(=O)O; Aib = CC(C)(N)C(=O)O

T1: IL-23 receptor on the surface of HEK-Blue IL-23 cells (UniProt Q5VWK5 24-629, limits assumed)
T1 sequence (looked up): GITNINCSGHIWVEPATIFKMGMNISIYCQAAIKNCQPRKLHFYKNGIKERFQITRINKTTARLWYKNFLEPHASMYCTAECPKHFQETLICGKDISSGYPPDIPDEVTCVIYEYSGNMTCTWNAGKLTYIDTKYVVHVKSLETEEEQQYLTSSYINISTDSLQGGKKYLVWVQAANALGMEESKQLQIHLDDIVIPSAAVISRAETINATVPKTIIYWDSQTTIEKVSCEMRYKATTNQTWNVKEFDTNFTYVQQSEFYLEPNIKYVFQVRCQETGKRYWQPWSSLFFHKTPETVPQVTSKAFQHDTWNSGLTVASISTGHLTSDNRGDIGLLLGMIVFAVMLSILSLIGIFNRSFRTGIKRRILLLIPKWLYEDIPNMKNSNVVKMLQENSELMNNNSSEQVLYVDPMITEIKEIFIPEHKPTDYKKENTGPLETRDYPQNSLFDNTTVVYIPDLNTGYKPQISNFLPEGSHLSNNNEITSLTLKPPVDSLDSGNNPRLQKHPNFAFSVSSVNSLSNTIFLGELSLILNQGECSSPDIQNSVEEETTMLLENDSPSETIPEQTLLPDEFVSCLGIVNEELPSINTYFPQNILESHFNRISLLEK


Molecular target: T1, IL-23 receptor on the surface of …
Assay: cell-based or functional assay

Binder	Inhibition of IL-23 induced pSTAT3 (IC50 nM) [nM]
Ac-[dK]NT[Trp(1-Me)]QR[Tyr(Me)][2Nal][αMeL]DNN-NH2 (lactam 1-10; SMILES COc1ccc(C[C@@H]2NC(=O)[C@H](CCCNC(=N)N)NC(=O)[C@H](CCC(N)=O)NC(=O)[C@H](Cc3cn(C)c4ccccc34)NC(=O)[C@H]([C@@H](C)O)NC(=O)[C@H](CC(N)=O)NC(=O)[C@H](NC(C)=O)CCCCNC(=O)C[C@@H](C(=O)N[C@@H](CC(N)=O)C(=O)N[C@@H](CC(N)=O)C(N)=O)NC(=O)[C@](C)(CC(C)C)NC(=O)[C@H](Cc3ccc4ccccc4c3)NC2=O)cc1) [peptide IL-23 receptor inhibitor SEQ. ID NO. 24]	385
Ac-[dK]NT[Trp(1-Me)]QR[Tyr(Me)][2Nal]K(Ac)DNN-NH2 (lactam 1-10; SMILES COc1ccc(C[C@@H]2NC(=O)[C@H](CCCNC(=N)N)NC(=O)[C@H](CCC(N)=O)NC(=O)[C@H](Cc3cn(C)c4ccccc34)NC(=O)[C@H]([C@@H](C)O)NC(=O)[C@H](CC(N)=O)NC(=O)[C@H](NC(C)=O)CCCCNC(=O)C[C@@H](C(=O)N[C@@H](CC(N)=O)C(=O)N[C@@H](CC(N)=O)C(N)=O)NC(=O)[C@H](CCCCNC(C)=O)NC(=O)[C@H](Cc3ccc4ccccc4c3)NC2=O)cc1) [peptide compound SEQ ID NO: 10]	1440
Ac-[dK]NTWQA[Tyr(Me)][2Nal][Aib]DNN-NH2 (lactam 1-10; SMILES COc1ccc(C[C@@H]2NC(=O)[C@H](C)NC(=O)[C@H](CCC(N)=O)NC(=O)[C@H](Cc3c[nH]c4ccccc34)NC(=O)[C@H]([C@@H](C)O)NC(=O)[C@H](CC(N)=O)NC(=O)[C@H](NC(C)=O)CCCCNC(=O)C[C@@H](C(=O)N[C@@H](CC(N)=O)C(=O)N[C@@H](CC(N)=O)C(N)=O)NC(=O)C(C)(C)NC(=O)[C@H](Cc3ccc4ccccc4c3)NC2=O)cc1) [peptide compound SEQ ID NO: 2]	234
Ac-[dD]NTWQR[Tyr(Me)][2Nal][Aib][Orn]NN-NH2 (lactam 1-10; SMILES COc1ccc(C[C@@H]2NC(=O)[C@H](CCCNC(=N)N)NC(=O)[C@H](CCC(N)=O)NC(=O)[C@H](Cc3c[nH]c4ccccc34)NC(=O)[C@H]([C@@H](C)O)NC(=O)[C@H](CC(N)=O)NC(=O)[C@H](NC(C)=O)CC(=O)NCCC[C@@H](C(=O)N[C@@H](CC(N)=O)C(=O)N[C@@H](CC(N)=O)C(N)=O)NC(=O)C(C)(C)NC(=O)[C@H](Cc3ccc4ccccc4c3)NC2=O)cc1) [peptide compound SEQ ID NO: 13]	1150
Ac-[dK]NTWQR[Tyr(Me)][2Nal][Aib]DNN-NH2 (lactam 1-10; SMILES COc1ccc(C[C@@H]2NC(=O)[C@H](CCCNC(=N)N)NC(=O)[C@H](CCC(N)=O)NC(=O)[C@H](Cc3c[nH]c4ccccc34)NC(=O)[C@H]([C@@H](C)O)NC(=O)[C@H](CC(N)=O)NC(=O)[C@H](NC(C)=O)CCCCNC(=O)C[C@@H](C(=O)N[C@@H](CC(N)=O)C(=O)N[C@@H](CC(N)=O)C(N)=O)NC(=O)C(C)(C)NC(=O)[C@H](Cc3ccc4ccccc4c3)NC2=O)cc1) [peptide compound SEQ ID NO: 3]	430
Ac-[dD]NTWQR[Tyr(Me)][2Nal][Aib]KNN-NH2 (lactam 1-10; SMILES COc1ccc(C[C@@H]2NC(=O)[C@H](CCCNC(=N)N)NC(=O)[C@H](CCC(N)=O)NC(=O)[C@H](Cc3c[nH]c4ccccc34)NC(=O)[C@H]([C@@H](C)O)NC(=O)[C@H](CC(N)=O)NC(=O)[C@H](NC(C)=O)CC(=O)NCCCC[C@@H](C(=O)N[C@@H](CC(N)=O)C(=O)N[C@@H](CC(N)=O)C(N)=O)NC(=O)C(C)(C)NC(=O)[C@H](Cc3ccc4ccccc4c3)NC2=O)cc1) [peptide compound SEQ ID NO: 12]	6590
Ac-[dK]NTWQR[Tyr(Me)][2Nal][Aib]DNN-NH2 (lactam 1-10; SMILES COc1ccc(C[C@@H]2NC(=O)[C@H](CCCNC(=N)N)NC(=O)[C@H](CCC(N)=O)NC(=O)[C@H](Cc3c[nH]c4ccccc34)NC(=O)[C@H]([C@@H](C)O)NC(=O)[C@H](CC(N)=O)NC(=O)[C@H](NC(C)=O)CCCCNC(=O)C[C@@H](C(=O)N[C@@H](CC(N)=O)C(=O)N[C@@H](CC(N)=O)C(N)=O)NC(=O)C(C)(C)NC(=O)[C@H](Cc3ccc4ccccc4c3)NC2=O)cc1) [peptide compound SEQ ID NO: 15]	426
Ac-[dK]NTWQV[Tyr(Me)][1Nal][Aib]DNN-NH2 (lactam 1-10; SMILES COc1ccc(C[C@@H]2NC(=O)[C@H](C(C)C)NC(=O)[C@H](CCC(N)=O)NC(=O)[C@H](Cc3c[nH]c4ccccc34)NC(=O)[C@H]([C@@H](C)O)NC(=O)[C@H](CC(N)=O)NC(=O)[C@H](NC(C)=O)CCCCNC(=O)C[C@@H](C(=O)N[C@@H](CC(N)=O)C(=O)N[C@@H](CC(N)=O)C(N)=O)NC(=O)C(C)(C)NC(=O)[C@H](Cc3cccc4ccccc34)NC2=O)cc1) [peptide compound SEQ ID NO: 20]	10000

Other lines, results leading:

Inhibition of IL-23 induced pSTAT3 (IC50 nM) [nM]	Binder
1960	Ac-[dK]NT[Trp(1-Me)]QR[Tyr(Me)][1Nal][αMeL]DNN-NH2 (lactam 1-10; SMILES COc1ccc(C[C@@H]2NC(=O)[C@H](CCCNC(=N)N)NC(=O)[C@H](CCC(N)=O)NC(=O)[C@H](Cc3cn(C)c4ccccc34)NC(=O)[C@H]([C@@H](C)O)NC(=O)[C@H](CC(N)=O)NC(=O)[C@H](NC(C)=O)CCCCNC(=O)C[C@@H](C(=O)N[C@@H](CC(N)=O)C(=O)N[C@@H](CC(N)=O)C(N)=O)NC(=O)[C@](C)(CC(C)C)NC(=O)[C@H](Cc3cccc4ccccc34)NC2=O)cc1) [peptide compound SEQ ID NO: 23]
7500	Ac-[dK]NTWQ[Aib][Tyr(Me)][1Nal][Aib]DNN-NH2 (lactam 1-10; SMILES COc1ccc(C[C@@H]2NC(=O)C(C)(C)NC(=O)[C@H](CCC(N)=O)NC(=O)[C@H](Cc3c[nH]c4ccccc34)NC(=O)[C@H]([C@@H](C)O)NC(=O)[C@H](CC(N)=O)NC(=O)[C@H](NC(C)=O)CCCCNC(=O)C[C@@H](C(=O)N[C@@H](CC(N)=O)C(=O)N[C@@H](CC(N)=O)C(N)=O)NC(=O)C(C)(C)NC(=O)[C@H](Cc3cccc4ccccc34)NC2=O)cc1) [peptide compound SEQ ID NO: 21]
320	Ac-[dK]NTWQ[Aib][Tyr(Me)][2Nal][Aib]DNN-NH2 (lactam 1-10; SMILES COc1ccc(C[C@@H]2NC(=O)C(C)(C)NC(=O)[C@H](CCC(N)=O)NC(=O)[C@H](Cc3c[nH]c4ccccc34)NC(=O)[C@H]([C@@H](C)O)NC(=O)[C@H](CC(N)=O)NC(=O)[C@H](NC(C)=O)CCCCNC(=O)C[C@@H](C(=O)N[C@@H](CC(N)=O)C(=O)N[C@@H](CC(N)=O)C(N)=O)NC(=O)C(C)(C)NC(=O)[C@H](Cc3ccc4ccccc4c3)NC2=O)cc1) [peptide compound SEQ ID NO: 32]
3830	Ac-[dK]NT[Trp(1-Me)]QR[Tyr(Me)][2Nal][dAla(4-thiazolyl)]DNN-NH2 (lactam 1-10; SMILES COc1ccc(C[C@@H]2NC(=O)[C@H](CCCNC(=N)N)NC(=O)[C@H](CCC(N)=O)NC(=O)[C@H](Cc3cn(C)c4ccccc34)NC(=O)[C@H]([C@@H](C)O)NC(=O)[C@H](CC(N)=O)NC(=O)[C@H](NC(C)=O)CCCCNC(=O)C[C@@H](C(=O)N[C@@H](CC(N)=O)C(=O)N[C@@H](CC(N)=O)C(N)=O)NC(=O)[C@@H](Cc3cscn3)NC(=O)[C@H](Cc3ccc4ccccc4c3)NC2=O)cc1) [peptide compound SEQ ID NO: 25]
128	Ac-[dK]NTWQV[Tyr(Me)][2Nal][Aib]DNN-NH2 (lactam 1-10; SMILES COc1ccc(C[C@@H]2NC(=O)[C@H](C(C)C)NC(=O)[C@H](CCC(N)=O)NC(=O)[C@H](Cc3c[nH]c4ccccc34)NC(=O)[C@H]([C@@H](C)O)NC(=O)[C@H](CC(N)=O)NC(=O)[C@H](NC(C)=O)CCCCNC(=O)C[C@@H](C(=O)N[C@@H](CC(N)=O)C(=O)N[C@@H](CC(N)=O)C(N)=O)NC(=O)C(C)(C)NC(=O)[C@H](Cc3ccc4ccccc4c3)NC2=O)cc1) [peptide compound SEQ ID NO: 31]
2720	Ac-[dK]NTWQR[Tyr(Me)][2Nal][Cit]DNN-NH2 (lactam 1-10; SMILES COc1ccc(C[C@@H]2NC(=O)[C@H](CCCNC(=N)N)NC(=O)[C@H](CCC(N)=O)NC(=O)[C@H](Cc3c[nH]c4ccccc34)NC(=O)[C@H]([C@@H](C)O)NC(=O)[C@H](CC(N)=O)NC(=O)[C@H](NC(C)=O)CCCCNC(=O)C[C@@H](C(=O)N[C@@H](CC(N)=O)C(=O)N[C@@H](CC(N)=O)C(N)=O)NC(=O)[C@H](CCCNC(N)=O)NC(=O)[C@H](Cc3ccc4ccccc4c3)NC2=O)cc1) [peptide compound SEQ ID NO: 29]
